Here are results for one molecule from patent publication US20240261333A1 (published 2024).

Holding throughout (assay): co-IP, anti-FLAG, lysate of cells with C-FLAG B3GNT2; mass spectrometry
One assay addresses T1, PRRC2A (human, UniProt P48634 1-2157).
T1 construct: also called NP_004629.3 (+1)
The method, then: (§1) Cells were plated in 10-cm cell culture dishes and grown to 60-80% confluency. For each condition, two biological replicates were harvested for co-IP. Cells were washed with PBS and 4 mL of lysis buffer (20 mM HEPES, 1% Triton X-100, 150 mM NaCl, 1 mM EDTA, and 10% glycerol) containing protease inhibitor cocktail was added. Cells were scraped and lysate was incubated at 4° C. under rotary agitation for 1 h. Lysate was centrifuged at 14,000×g for 10 min at 4° C. Supernatant was transferred to a new tube and an aliquot was taken as the input. […] For Western blots, 10 μg/mL Chicken Anti-FLAG (Aves labs ET-DY100) and IgY control (R&D Systems AB-101-C) antibodies were biotinylated (Thermo Fisher Scientific 90407) and added to the respective conditions. Lysates with antibodies were incubated at 4° C. under rotary agitation overnight. For each mL of lysate, 50 μL of Pierce Protein A/G Magnetic Beads (Mass spectrometry; Thermo Fisher Scientific 88803) or Pierce Streptavidin Magnetic Beads (Western blot; Thermo Fisher Scientific 88817) was washed twice with lysis buffer. Lysates with antibodies were added to the beads and incubated at 4° C. under rotary agitation for 4 h. Beads were washed with lysis buffer 3 times and resuspended in lysis buffer for storage.
(§2) Magnetic beads were resuspended in 100 mM Tris pH 7.8, reduced, alkylated and digested with trypsin at 37° ° C. overnight. This solution was subjected to solid phase extraction to concentrate the peptides and remove unwanted reagents followed by injection onto a Shimadzu HPLC with fraction collector. Eight fractions were collected and after concentration were injected on a Waters NanoAcquity HPLC equipped with a self-packed Aeris 3 μm C18 analytical column 0.075 mm by 20 cm, (Phenomenex). Peptides were eluted using standard reverse-phase gradients. The effluent from the column was analyzed using a Thermo Orbitrap Elite mass spectrometer (nanospray configuration) operated in a data dependent manner for 54 minutes. The resulting fragmentation spectra were correlated against the known database using Proteome Discover 1.4 (Thermo Fisher Scientific).

A further assay concerns the target T2, FUBP3 (human, UniProt Q96I24 2-572).
T2 construct: also called NP_003925.1 (+2)
T2 sequence (looked up): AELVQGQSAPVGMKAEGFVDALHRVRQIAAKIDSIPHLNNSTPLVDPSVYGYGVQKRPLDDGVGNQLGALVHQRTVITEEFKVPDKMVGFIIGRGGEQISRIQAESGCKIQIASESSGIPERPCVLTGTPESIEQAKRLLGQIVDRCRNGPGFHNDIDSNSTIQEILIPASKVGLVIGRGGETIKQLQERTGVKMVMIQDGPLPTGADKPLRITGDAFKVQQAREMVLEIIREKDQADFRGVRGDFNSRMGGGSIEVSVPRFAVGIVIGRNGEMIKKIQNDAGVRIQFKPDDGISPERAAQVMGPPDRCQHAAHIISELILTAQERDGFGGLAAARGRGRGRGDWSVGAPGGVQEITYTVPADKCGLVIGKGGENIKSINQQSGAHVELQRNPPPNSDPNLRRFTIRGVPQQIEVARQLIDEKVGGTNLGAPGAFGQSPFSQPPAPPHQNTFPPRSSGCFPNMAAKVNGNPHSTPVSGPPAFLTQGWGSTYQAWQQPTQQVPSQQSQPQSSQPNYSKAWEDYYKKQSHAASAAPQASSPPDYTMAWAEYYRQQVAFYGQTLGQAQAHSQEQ
The method, then: as §1, §2

The next assay addresses T3, UBAP2L (human, UniProt Q14157 1-1087).
T3 construct: also called NP_055662.3 (+3)
T3 sequence (looked up): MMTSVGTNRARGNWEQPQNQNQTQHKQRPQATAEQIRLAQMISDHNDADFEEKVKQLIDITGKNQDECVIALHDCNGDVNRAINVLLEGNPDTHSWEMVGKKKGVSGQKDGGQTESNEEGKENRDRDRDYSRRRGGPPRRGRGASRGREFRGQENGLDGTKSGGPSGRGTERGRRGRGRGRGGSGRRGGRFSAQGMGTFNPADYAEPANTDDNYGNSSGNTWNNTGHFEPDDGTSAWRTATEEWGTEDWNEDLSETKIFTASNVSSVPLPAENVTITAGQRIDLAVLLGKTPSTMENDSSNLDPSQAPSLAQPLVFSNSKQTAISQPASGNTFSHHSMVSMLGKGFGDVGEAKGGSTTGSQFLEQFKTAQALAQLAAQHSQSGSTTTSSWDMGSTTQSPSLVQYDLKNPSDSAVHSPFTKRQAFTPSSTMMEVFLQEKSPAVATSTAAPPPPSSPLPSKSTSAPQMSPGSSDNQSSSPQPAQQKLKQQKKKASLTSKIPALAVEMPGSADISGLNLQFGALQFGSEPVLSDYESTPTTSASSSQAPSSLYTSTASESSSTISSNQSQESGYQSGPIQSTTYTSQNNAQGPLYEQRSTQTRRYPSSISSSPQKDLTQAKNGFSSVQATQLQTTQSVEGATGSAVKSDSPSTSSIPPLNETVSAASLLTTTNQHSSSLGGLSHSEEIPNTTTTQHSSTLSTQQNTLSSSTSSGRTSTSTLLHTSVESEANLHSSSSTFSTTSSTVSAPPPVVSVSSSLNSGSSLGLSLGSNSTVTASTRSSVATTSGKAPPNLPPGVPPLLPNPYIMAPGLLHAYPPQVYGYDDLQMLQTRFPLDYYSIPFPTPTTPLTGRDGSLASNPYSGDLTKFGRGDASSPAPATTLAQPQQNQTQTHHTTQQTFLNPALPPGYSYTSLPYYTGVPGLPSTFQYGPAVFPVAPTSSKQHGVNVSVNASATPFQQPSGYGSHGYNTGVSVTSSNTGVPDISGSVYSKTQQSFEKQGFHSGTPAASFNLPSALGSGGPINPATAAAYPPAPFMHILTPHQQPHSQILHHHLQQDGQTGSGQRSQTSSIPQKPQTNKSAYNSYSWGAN
The method, then: as §1, §2

The target of another assay is T4, C1orf68 (human, UniProt Q5T750 1-250).
T4 construct: also called NP_001019850.1
T4 sequence (Q5T750 whole entry): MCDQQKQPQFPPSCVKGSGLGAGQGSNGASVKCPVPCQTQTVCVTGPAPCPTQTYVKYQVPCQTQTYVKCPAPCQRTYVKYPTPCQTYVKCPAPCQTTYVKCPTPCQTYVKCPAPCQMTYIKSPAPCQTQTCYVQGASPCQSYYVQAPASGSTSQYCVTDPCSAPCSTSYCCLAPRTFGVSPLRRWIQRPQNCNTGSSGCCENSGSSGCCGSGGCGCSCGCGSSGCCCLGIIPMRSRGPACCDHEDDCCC
The method, then: as §1, §2

For another assay, the target named is T5, HUWE1 (human, UniProt Q7Z6Z7 1-4374).
T5 construct: also called NP_113584.3 (+11)
Here is the method: as §1, §2

Another assay deals with FAU (human, UniProt P62861 75-133). Here is the method: as §1, §2

T1 sequence (P48634 whole entry): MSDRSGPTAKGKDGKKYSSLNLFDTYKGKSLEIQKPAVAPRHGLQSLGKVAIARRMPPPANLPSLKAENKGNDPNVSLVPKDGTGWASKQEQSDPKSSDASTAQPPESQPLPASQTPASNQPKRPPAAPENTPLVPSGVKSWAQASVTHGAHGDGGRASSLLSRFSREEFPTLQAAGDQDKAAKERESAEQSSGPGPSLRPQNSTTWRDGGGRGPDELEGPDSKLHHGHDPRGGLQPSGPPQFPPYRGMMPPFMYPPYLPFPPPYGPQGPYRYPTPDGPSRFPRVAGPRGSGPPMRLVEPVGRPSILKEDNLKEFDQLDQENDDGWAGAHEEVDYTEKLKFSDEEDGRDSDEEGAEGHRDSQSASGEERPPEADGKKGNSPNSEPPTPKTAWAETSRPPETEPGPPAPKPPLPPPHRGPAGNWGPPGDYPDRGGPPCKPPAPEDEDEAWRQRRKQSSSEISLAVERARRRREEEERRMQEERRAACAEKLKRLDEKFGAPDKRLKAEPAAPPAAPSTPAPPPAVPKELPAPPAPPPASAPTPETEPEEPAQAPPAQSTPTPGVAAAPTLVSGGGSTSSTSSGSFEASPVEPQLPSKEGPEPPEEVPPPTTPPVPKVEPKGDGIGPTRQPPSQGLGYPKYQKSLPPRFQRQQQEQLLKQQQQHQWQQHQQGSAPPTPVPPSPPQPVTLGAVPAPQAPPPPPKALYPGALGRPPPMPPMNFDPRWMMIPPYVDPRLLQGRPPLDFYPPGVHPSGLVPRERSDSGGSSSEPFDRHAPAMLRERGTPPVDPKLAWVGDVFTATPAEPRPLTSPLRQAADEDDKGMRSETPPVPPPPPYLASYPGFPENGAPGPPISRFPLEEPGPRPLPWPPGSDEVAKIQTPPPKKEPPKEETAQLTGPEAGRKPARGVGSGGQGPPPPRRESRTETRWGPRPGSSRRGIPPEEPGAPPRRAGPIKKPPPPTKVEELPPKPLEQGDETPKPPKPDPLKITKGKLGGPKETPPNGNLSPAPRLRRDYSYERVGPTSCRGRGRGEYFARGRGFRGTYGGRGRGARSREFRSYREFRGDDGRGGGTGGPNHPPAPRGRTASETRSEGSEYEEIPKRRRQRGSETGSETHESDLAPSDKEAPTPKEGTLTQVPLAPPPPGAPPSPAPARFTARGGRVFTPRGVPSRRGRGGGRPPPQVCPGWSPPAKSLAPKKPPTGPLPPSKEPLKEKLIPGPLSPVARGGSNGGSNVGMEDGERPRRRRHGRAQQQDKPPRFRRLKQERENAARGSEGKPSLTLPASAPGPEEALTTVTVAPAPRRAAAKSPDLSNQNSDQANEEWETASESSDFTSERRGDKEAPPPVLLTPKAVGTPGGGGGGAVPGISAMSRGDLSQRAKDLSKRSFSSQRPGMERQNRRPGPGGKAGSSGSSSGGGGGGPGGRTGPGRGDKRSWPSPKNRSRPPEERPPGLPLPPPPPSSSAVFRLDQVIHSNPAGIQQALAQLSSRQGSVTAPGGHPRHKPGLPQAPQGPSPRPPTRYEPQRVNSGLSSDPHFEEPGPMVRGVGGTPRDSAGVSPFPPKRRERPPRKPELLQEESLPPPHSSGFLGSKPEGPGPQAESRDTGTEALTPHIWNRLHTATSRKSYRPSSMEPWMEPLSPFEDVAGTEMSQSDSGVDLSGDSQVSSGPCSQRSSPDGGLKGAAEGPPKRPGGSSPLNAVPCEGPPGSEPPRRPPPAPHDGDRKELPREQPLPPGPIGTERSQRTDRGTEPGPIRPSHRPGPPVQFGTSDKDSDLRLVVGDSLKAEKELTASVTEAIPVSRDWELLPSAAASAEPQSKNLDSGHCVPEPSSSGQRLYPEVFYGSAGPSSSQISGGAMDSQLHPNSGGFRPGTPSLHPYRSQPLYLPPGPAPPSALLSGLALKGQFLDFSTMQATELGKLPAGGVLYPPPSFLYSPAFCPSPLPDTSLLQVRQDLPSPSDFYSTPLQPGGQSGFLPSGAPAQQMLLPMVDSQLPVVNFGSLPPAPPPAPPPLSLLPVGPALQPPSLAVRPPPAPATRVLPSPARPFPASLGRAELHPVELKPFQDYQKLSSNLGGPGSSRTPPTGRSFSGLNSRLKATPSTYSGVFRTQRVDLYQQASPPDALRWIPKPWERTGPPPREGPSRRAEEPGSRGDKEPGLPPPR

B1: C-terminal FLAG tagged B3GNT2 (enzyme, human, UniProt Q9NY97 1-397, looked up)
chain: MSVGRRRIKLLGILMMANVFIYFIMEVSKSSSQEKNGKGEVIIPKEKFWKISTPPEAYWNREQEKLNRQYNPILSMLTNQTGEAGRLSNISHLNYCEPDLRVTSVVTGFNNLPDRFKDFLLYLRCRNYSLLIDQPDKCAKKPFLLLAIKSLTPHFARRQAIRESWGQESNAGNQTVVRVFLLGQTPPEDNHPDLSDMLKFESEKHQDILMWNYRDTFFNLSLKEVLFLRWVSTSCPDTEFVFKGDDDVFVNTHHILNYLNSLSKTKAKDLFIGDVIHNAGPHRDKKLKYYIPEVVYSGLYPPYAGGGGFLYSGHLALRLYHITDQVHLYPIDDVYTGMCLQKLGLVPEKHKGFRTFDIEEKNKNNICSYVDLMLVHSRKPQEMIDIWSQLQSAHLKC
notes: Overexpressed in cells and pulled down from the lysate with mouse anti-FLAG antibody; also called C-FLAG B3GNT2; C-term flag; not shown: C-terminal FLAG tag
Take B1: the “co-IP mass spectrometry count” value in the assay with PRRC2A turned out to be 5; in the assay with FUBP3, 9; with UBAP2L it was 19; with C1orf68, 2; with HUWE1, 0; with FAU it was 7.
